Columns and labels:
Conditions in all cases: FMN input: 0 or 200 uM; Eterna round: R93 (includes R88 designs)
[1] = tested on: MS2 coat protein; test: apparent KD of MS2 coat protein, switch ON state; designed switch direction (-1 OFF switch, 1 ON switch): 1; higher = weaker reporter binding
Method in brief: (§1)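 The buffer was 100 mM Tris-HCl pH 7.5 with 80 mM KCl and 4 mM MgCl2, used without or with constant ligand. In it, RNA switches transcribed on-chip from Illumina sequencing clusters were titrated with SNAP-549-labelled MS2 coat protein in twofold steps from 0.7 or 1.5 nM to 3 µM. Apparent KD for each design is the median of its normalised cluster binding-curve fits.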

[2] = tested on: MS2 coat protein; test: apparent KD of MS2 coat protein, switch OFF state (with FMN for OFF switches, without FMN for ON switches); designed switch direction (-1 OFF switch, 1 ON switch): 1; higher = weaker reporter binding
Method in brief: as §1

[3] = tested on: MS2 coat protein; test: apparent KD of MS2 coat protein, switch ON state; designed switch direction (-1 OFF switch, 1 ON switch): -1; higher = weaker reporter binding
Method in brief: as §1

[4] = tested on: MS2 coat protein; test: apparent KD of MS2 coat protein, switch OFF state (with FMN for OFF switches, without FMN for ON switches); designed switch direction (-1 OFF switch, 1 ON switch): -1; higher = weaker reporter binding
Method in brief: as §1

Sequence	apparent KD of MS2 coat protein [1]	apparent KD of MS2 coat protein [2]	apparent KD of MS2 coat protein [3]	apparent KD of MS2 coat protein [4]
AAAACACAUGAGGAUCACCCAUGUAAAAACAUGAGAGGAUAUGCAUGAAAAACAUGCUAUGCAGAAGGCUCAUGUG [SS1 - 1]	20.9 nM	27.2 nM		
AAAUAAAGGACUAAGGAUAUAUCGCAUGACACAUGAGGAUCACCCAUGUGGUAACACAGAGGGUGAUAGAAGGUAGUCCACAAACA [Pariah 6 (MS2 Riboswitches - Same State 2)]	42.8 nM	287 nM		
AAAAAACAUGAGGAUCACCCAUGUGCAAAAUUCGCAGGAUAUCCCUUUUUUAAAUGGGAGGGAGAAGGGUGUAAAA [Nob's Hobby 18 - Jieux - Same State 1]	27.1 nM	47.4 nM		
AAAAUACAUGAGGAUCACCCAUGUCCGACAAAUCAAGGAUAUGAUAGCCAAACCAGGCUGUUAGAAGGUGAAAGAA [Esesrien]	260 nM	151 nM		
AACAAUCUAUCUGAGGAUAUCAUUUCAAAGACAUGAGGAUCACCCAUGUCCAGGAAAACUGGAAAUGAGAAGGCAGAUAGAUUGA [SS2: 1106]	11.7 nM	9.31 nM		
AGAAGACAUGAGGAUCACCCAUGUGGGAAUAUGGGAGGAUAUACAAAGACGAGAGUCAGAGUAGAAGGCCUAGGUA [salish99-ss1-109]	32.5 nM	99.5 nM		
AAAAAACAUGAGGAUCACCCAUGUCCUCGGACGUGAGGAUAUGUACAGACUUCGGUCUGUACAGAAGGCACGAAAA [SS1 - 1036]	503 nM	319 nM		
CGAAGACAUGAGGAUCACCCAUGUGGGAAUAUGGGAGGAUAUACAAAGACGAGAGUCAGAGUAGAAGGCCUAGGAU [salish99-ss1-105]	29.5 nM	78.7 nM		
GAAAAACAUGAGGAUCACCCAUGUAGUAAUAUGGAAGGAUAUACAAAGACGUAAGUCAAAGUAGAAGGUCUAAAAG [Garnet 100]	21.6 nM	24.7 nM		
GAAAAACAUGAGGAUCACCCAUGUAAGAUAAACACAGGAUAUGCGAAAAGAAAGAAAGAAGCAGAAGGGUGAAAAG [Mat - Same State 1 - Tesla mod - 42]	15.2 nM	43.8 nM		
AUAACACAUGAGGAUCACCCAUGUAGAUCCACGUCAGGAUAUGCAAAGAAAAUAAACAAAGCAGAAGGGACAAUAA [SS 1 Tesla 1]	47.3 nM	49.6 nM		
AGGAAACAUGAGGAUCACCCAUGUAGAAAUAUGGGAGGAUAUACAAAGACGAAAGUCAAAGUAGAAGGCCUAAAAA [Mat - Same State 1 - Mod - D151]	17.6 nM	57.1 nM		
AAAAAAAAAAGGCAGGAUAUCCAAAAAAAAACAUGAGGAUCACCCAUGUAAAAAAAAAAAAAAUGGGAGAAGGGCCAAAAAAAAAA [Mat - Mod of Eli]	24.9 nM	46.3 nM		
AACAAUCUAUCUGAGGAUAUCAUGUAAAAGACAUGAGGAUCACCCAUGUAGCAGGAAACUGCACAUGAGAAGGCAGAUAGAUUGA [SS2: 1124]	15.9 nM	19.6 nM		
CGGAGACAUGAGGAUCACCCAUGUGAGAAGAGGCGAGGAUAUCGAAAGAAAGAAGAGAAACGAGAAGGCGCGAGCC [salish99-SS1-080(!)]	32.1 nM	31.4 nM		
UAAAAACAUGAGGAUCACCCAUGUAGAAACAUGGGAGGAUAUACAAAGACGAAAGUCAAAGUAGAAGGCCUAAAAU [Mat - Same State 1 - Mod - D169]	51.4 nM	43.4 nM		
AUAACAACGUAUGAGGAUAUCCUUAAUAAAACAUGAGGAUCACCCAUGUGAAUAAAAUAACAAUUGGAGAAGGCAUACGUACAAU [SS 2 M 52]	15.4 nM	20.8 nM		
UAGGGAACAGGGUAGGAUAUGCAUGGUCGUACAUGAGGAUCACCCAUGUAGCCUAGAAAAUAAAUGCAGAAGGACCAAAAGAAAA [Ononmaesra]	16.5 nM	48.3 nM		
AAUUGACAUGAGGAUCACCCAUGUAGGAUUAUGGGAGGAUAUACAAAGACGAGAGUCAGAGUAGAAGGCCUAGGAA [salish99-ss1-146]	25 nM	82.1 nM		
AACAAUCUAUCUGAGGAUAUCAAAAAAAAAACAUGAGGAUCACCCAUGUCUAGGAAAACUAGAUAUGAGAAGGCAGAUAGAUUGA [SS1 - 593]	7.93 nM	49.6 nM		
AAUAUACAUGAGGAUCACCCAUGUUUUAAUAACGCAGGAUAUACGGGUGAAAACAGCAUAGUAGAAGGGCGAAAAA [SameState1 Malc#1]	31.8 nM	106 nM		

Sequence	apparent KD of MS2 coat protein [1]	apparent KD of MS2 coat protein [2]	apparent KD of MS2 coat protein [3]	apparent KD of MS2 coat protein [4]
GAAAAACAUGAGGAUCACCCAUGUAGAAAUAUGGAAGGAUAUACAAAGACGAAAGUCAAAGUAGAAGGUCUAAAAG [Mat - Same State 1 - Eli mod - D13]	15.5 nM	19.8 nM		
AAAUAAAAAAAAAAGGAUAUUCAUGUAAAAACAUGAGGAUCACCCAUGUAAAAAAAUAAAAAUAAAAAGAAGGAAAAAUAAAAAA [SS2: 85 No MS2]	77.1 nM	164 nM		
AACAAUCUAUCUGAGGAUAUGUGUCGAAAGACAUGAGGAUCACCCAUGUAAAAACAUGGAAAGAUACAGAAGGCAGAUAGAUUGA [SS2: 1157]	28.4 nM	107 nM		
AAGAAACAUGAGGAUCACCCAUGUAAGAUAAACACAGGAUAUGCGAAAAUAAAUAAAUAAGCAGAAGGGUGAAGAA [Mat - Same State 1 - Tesla mod - 66]	14.8 nM	42.4 nM		
GGGAAGAACAGAGAGGAUAUCCAAAGGAAAACAUGAGGAUCACCCAUGUAAAAGGAAGGAAAUUGGGAGAAGGCUCAAAAGAGAA [salish99-ss2-023]	32.5 nM	36.4 nM		
AAUAUACAUGAGGAUCACCCAUGUUUUAAUAACUGAGGAUAUACGGGUGAAAACAGCAUAGUAGAAGGCAGAUAUA [SameState1 Malc#6]	37.8 nM	102 nM		
GAAAAAAAAAGGCAGGAUAUCCAAAAAAAAACAUGAGGAUCACCCAUGUAAAAAAAAAAAAAAUGGGAGAAGGGCCAAAAAAAAA [Mat - Same State 2 - Mod - 151]	25.5 nM	35.2 nM		
AAAAGACAUGAGGAUCACCCAUGUAAAGACAUAGGAGGAUAUGUCGUGAAAAAAGACUUGGCAGAAGGCCUUUGUC [SS1 - 46]	21 nM	25.6 nM		
AAAAUAAAAUAAAAGGAUAUAAAAUAAAAUACAUGAGGAUCACCCAUGUAUAAAAUAAAAAAAUAAAAGAAGGAAUAAAAAUAAA [SS2 504: MS2 4]	16.4 nM	11.2 nM		
GGAGCUCCAGCGCAGGAUAUCGACCCAGGGACAUGAGGAUCACCCAUGUUCCAAAAAAAAUGGGUCGAGAAGGGCGUUGGAGAGCC [SAmeState2-III]	11 nM	12.2 nM		
GAACCACAUGAGGAUCACCCAUGUCUAAGAAAUUAAGGAUAUGCACAAAAGGAAAUAACUGCAGAAGGUAAACGAA [Redo]	25.1 nM	33.1 nM		
AAAAAGGAAGGAUAUACGAACAUGUCGAAAGACGUGAAGGGACAUGAGGAUCACCCAUGUAGAAGGUUCAAAAA [Mat - Exclusion 2 - JL mod - D80]			33.6 nM	19.3 nM
UAAAGACAUGAGGAUCACCCAUGUGAGGAUAUAGGUGUAUGCAAAAAAAAGUUAAAAACUAGAAGGCACAGAAA [JR_Exc001_Sub305]			66 nM	42.5 nM
AAAAGCACAGGAUAUACAAGGAUAUGACGAAAGUCAUAAAAACAUGAGGAUCACCCAUGUAGAAGGGUGCAAAA [Mod of Meechl's... 64% 3]			206 nM	136 nM
GAAAACAGAGGAUAUACAUGAGGAUCACCCAUGUAAAAAUGUAGAAGGCUGAAAGAAAGAAGAAGGAAAGAAAA [Meechl Ex3 R2 m2]			24.2 nM	28.3 nM
AAAAAGUGAGGAUAUGCGCUGUGGAGUAGACACGACCAGUCGUAGAAGGCACAUGAGGAUCACCCAUGUUCAAA [EX4 Malc#21]			27.4 nM	25.3 nM
GGAAAACAUGAGGAUCACCCAUGUAAGGAUAUGCAAAAAAAAAAAGGAUAUAGAAGGAGCAGAAGGUACAAAGG [salish99-ex1-29]			36.2 nM	57 nM
CUCUUGUCAGGAUAUCUAAGAAAAGAAAAGAAAGAAAAGAAAGAGAAGGGACAUGAGGAUCACCCAUGUAAGAA [EteRNA is fun!]			46.3 nM	42.4 nM
AAAAAACAUGAGGAUCACCCAUGUCAGGAUAUGCUAUGGAAAAUAAAAAUAAAACAUAGCAGAAGGGACACCAA [64%, Meechl, 2]			32.8 nM	58.1 nM
GAGGAGUCAGGAUAUCGGGAAAGGUUGAGGAAGAGAAGAAGCGAGAAGGGACAUGAGGAUCACCCAUGUAGAAG [Default title]			46.7 nM	40.3 nM
AAAAAACAUGAGGAUCACCCAUGUAAGGAUAUGCUAGGAAAAAGAAAAAUAAAAACUAGCAGAAGGUACAUGAA [JL wbt mod 11]			33.2 nM	113 nM
